Source: publication PMC7326497, “Membrane characteristics tune activities of endosomal and autophagic human VPS34 complexes” (eLife, 2020)

Target: T1, human VPS15, subunit of complexes I and II (human, UniProt Q99570 1-1358)
T1 construct: VPS15, human; expressed as HsVPS15-3xTEV-ZZ from the plasmid HsVPS34 + HsVPS15-3xTEV-ZZ; A 3xTEV site lies between VPS15 and ZZ; whether the tag was cut off is told only in Ohashi et al., 2016; The printed theoretical masses fit tag-free whole chains (my reckoning); also called HsVPS15; source: Expi293 cells, transfected, co-expressed with the other subunits, purified as a complex (method of …)
T1 sequence (Q99570 whole entry, one chain of several): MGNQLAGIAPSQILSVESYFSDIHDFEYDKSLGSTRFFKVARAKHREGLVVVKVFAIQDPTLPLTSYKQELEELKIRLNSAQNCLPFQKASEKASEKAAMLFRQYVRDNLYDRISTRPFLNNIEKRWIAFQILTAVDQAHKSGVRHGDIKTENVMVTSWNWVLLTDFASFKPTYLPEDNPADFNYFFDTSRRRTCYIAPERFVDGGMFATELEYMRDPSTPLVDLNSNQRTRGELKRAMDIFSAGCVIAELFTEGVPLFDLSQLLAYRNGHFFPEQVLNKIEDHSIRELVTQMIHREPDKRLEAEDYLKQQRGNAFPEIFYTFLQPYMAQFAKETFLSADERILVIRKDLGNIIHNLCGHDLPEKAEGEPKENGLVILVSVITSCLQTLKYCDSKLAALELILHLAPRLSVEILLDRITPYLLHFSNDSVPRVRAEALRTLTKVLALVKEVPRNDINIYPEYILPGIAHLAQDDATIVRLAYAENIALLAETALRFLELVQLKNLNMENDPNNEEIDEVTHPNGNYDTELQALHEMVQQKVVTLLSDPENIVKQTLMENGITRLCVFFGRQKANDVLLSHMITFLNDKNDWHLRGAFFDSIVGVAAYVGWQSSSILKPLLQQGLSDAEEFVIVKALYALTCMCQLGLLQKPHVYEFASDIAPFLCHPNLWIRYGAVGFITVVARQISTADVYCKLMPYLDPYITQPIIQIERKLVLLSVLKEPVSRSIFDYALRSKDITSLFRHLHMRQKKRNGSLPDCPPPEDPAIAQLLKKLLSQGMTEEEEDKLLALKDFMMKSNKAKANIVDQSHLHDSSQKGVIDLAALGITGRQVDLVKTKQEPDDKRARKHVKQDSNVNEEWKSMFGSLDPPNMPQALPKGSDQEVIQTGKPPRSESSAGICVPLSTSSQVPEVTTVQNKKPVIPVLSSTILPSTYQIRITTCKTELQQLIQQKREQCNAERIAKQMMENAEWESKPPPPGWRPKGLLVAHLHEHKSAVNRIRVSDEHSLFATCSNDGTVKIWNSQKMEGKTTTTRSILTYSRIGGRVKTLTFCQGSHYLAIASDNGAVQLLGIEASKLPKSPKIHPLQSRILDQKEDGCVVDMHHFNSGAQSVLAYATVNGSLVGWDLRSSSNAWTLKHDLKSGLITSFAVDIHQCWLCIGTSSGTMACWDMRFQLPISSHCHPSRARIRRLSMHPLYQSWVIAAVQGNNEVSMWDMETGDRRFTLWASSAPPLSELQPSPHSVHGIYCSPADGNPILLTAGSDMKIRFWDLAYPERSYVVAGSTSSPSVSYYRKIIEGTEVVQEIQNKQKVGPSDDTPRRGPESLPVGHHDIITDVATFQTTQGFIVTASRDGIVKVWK
Assay: SEC-MALS; purified, co-expressed human complex II at 0.8 mg/mL; Superose 6 10/300, 0.5 mL/min; measured 384 kDa against 386 kDa theoretical
Conditions: both partners purified

- stoichiometry N: 1
B1: human UVRAG, specific subunit of complex II (natural protein, UniProt Q9P2Y5 1-699, looked up)
chain: MSASASVGGPVPQPPPGPAAALPPGSAARALHVELPSQQRRLRHLRNIAARNIVNRNGHQLLDTYFTLHLCSTEKIYKEFYRSEVIKNSLNPTWRSLDFGIMPDRLDTSVSCFVVKIWGGKENIYQLLIEWKVCLDGLKYLGQQIHARNQNEIIFGLNDGYYGAPFEHKGYSNAQKTILLQVDQNCVRNSYDVFSLLRLHRAQCAIKQTQVTVQKIGKEIEEKLRLTSTSNELKKKSECLQLKILVLQNELERQKKALGREVALLHKQQIALQDKGSAFSAEHLKLQLQKESLNELRKECTAKRELFLKTNAQLTIRCRQLLSELSYIYPIDLNEHKDYFVCGVKLPNSEDFQAKDDGSIAVALGYTAHLVSMISFFLQVPLRYPIIHKGSRSTIKDNINDKLTEKEREFPLYPKGGEKLQFDYGVYLLNKNIAQLRYQHGLGTPDLRQTLPNLKNFMEHGLMVRCDRHHTSSAIPVPKRQSSIFGGADVGFSGGIPSPDKGHRKRASSENERLQYKTPPPSYNSALAQPVTTVPSMGETERKITSLSSSLDTSLDFSKENKKKGEDLVGSLNGGHANVHPSQEQGEALSGHRATVNGTLLPSEQAGSASVQLPGEFHPVSEAELCCTVEQAEEIIGLEATGFASGDQLEAFNCIPVDSAVAVECDEQVLGEFEEFSRRIYALNENVSSFRRPRRSSDK
notes: UVRAG, human; see Supplementary file 6; also called HsUVRAG; not shown: ZZ (only in pYO1018 and pYO1023)
